Like-named read-outs stand apart in the source and are kept apart here.
Assays:
[1] = molecular target: TAC-YFP-DAT C24 (C-terminus of the dopamine transporter on TAC-YFP) (not stated | not stated (human DAT is named for the β2-DAT8 constructs)); experiment: supported cell membrane sheets (SCMS), confocal microscopy, competition binding; 100 nM labelled SNAP-PICK1 premixed with increasing unlabelled PICK1 WT, 120 min, on sheets expressing TAC-YFP-DAT; half maximal binding reported as Ki*
[2] = molecular target: Oregon Green-labeled DAT C13 peptide (not stated (human DAT is named for the β2-DAT8 constructs)); experiment: fluorescence polarisation; saturation: PICK1 diluted to various concentrations, 20 nM OrG DAT C13; 50 mM Tris pH 7.4, 125 mM NaCl, 1 mM DTT, 0.01% Triton X-100; 30 min on ice
[3] = molecular target: FLAG-β2 DAT8 LKI (rat (Rattus norvegicus) | human); experiment: supported cell membrane sheets (SCMS), confocal microscopy, saturation binding of exchanged dimers; monomers purified in 0.1% TX-100, mixed and diluted at least 100-times to form WT/WT or WT/A87L dimers (A87L in 4 times excess); sheets expressing LKV or LKI; read in the WT and the A87L channel; apparent (Kd*)
[4] = molecular target: TAC-YFP-DAT C24 (C-terminus of the dopamine transporter on TAC-YFP) (not stated | not stated (human DAT is named for the β2-DAT8 constructs)); experiment: supported cell membrane sheets (SCMS), confocal microscopy, association time course; PICK1 binding as a function of incubation time; PICK1 100 nM for LKV and LKI
[5] = molecular target: FLAG-β2 DAT8 LKI (rat (Rattus norvegicus) | human); experiment: as above
[6] = molecular target: TAC-YFP-GluA2 (24 C-terminal residues of GluA2 on the IL-2 receptor α-subunit fused to YFP) (not stated | rat (Rattus norvegicus)); experiment: supported cell membrane sheets (SCMS), confocal microscopy, saturation binding; labelled PICK1 in sheet buffer (120 mM KCl, 2 mM MgCl2, 0.1 mM CaCl2, 10 mM HEPES, 30 mM glucose pH 7.35) overlaid for 2 h on ice on sheets from transfected HEK293 GripTite cells; PICK1 signal divided by receptor signal; apparent affinity (Kd*), headed EC50 in the tables
[7] = molecular target: TAC-YFP-DAT C24 (C-terminus of the dopamine transporter on TAC-YFP) (not stated | not stated (human DAT is named for the β2-DAT8 constructs)); experiment: as above
[8] = molecular target: FLAG-β2 DAT8 LKI (rat (Rattus norvegicus) | human); experiment: as above
[9] = molecular target: FLAG-β2 DAT8 LKA (rat (Rattus norvegicus) | human); experiment: as above
[10] = molecular target: FLAG-β2 DAT8 LKI (rat (Rattus norvegicus) | human); experiment: supported cell membrane sheets (SCMS), confocal microscopy, dissociation time course; PICK1 dissociation from sheets expressing LKV (two-state fit) or LKI (one-state fit)
[11] = molecular target: FLAG-β2 DAT8 LKI (rat (Rattus norvegicus) | human); experiment: supported cell membrane sheets (SCMS), confocal microscopy, association time course; PICK1 binding as a function of incubation time; PICK1 100 nM for LKV and LKI; remark: listed apart in the source

Substance: PICK1 WT without SNAP-tag (from UniProt Q9EP80 1-416) (natural protein)
- IC50 [1]: 29 nM
- Kd [2]: 9000 nM

Substance: PICK1 WT/A87L heterodimer (from UniProt Q9EP80 1-416; Q9EP80 1-416) (complex)
- EC50 [3]: 123 nM

Substance: SNAP-PICK1 WT (PICK1 with an N-terminal SNAP-tag, fluorescently labelled) (from UniProt Q9EP80 1-416) (natural protein)
- time to half maximum binding [4]: 19 min
- time to half maximum binding [5]: 14 min
- EC50 [6]: 73 nM
- EC50 [7]: 47 nM
- EC50 [8]: 29 nM
- Kd* (apparent affinity) [8]: 39 nM
- EC50 [9]: 59 nM
- dissociation half-life [10]: 7.18 h
- time to half maximum binding [11]: 11 min
